Measured values taken from publication PMC11997217, “Inactivation of GH3.5 by COP1-mediated K63-linked ubiquitination promotes seedling hypocotyl elongation” (Nature Communications, 2025).

Target: T1, MBP-COP1 (Arabidopsis, UniProt P43254 1-675)
T1 construct: CONSTITUTIVELY PHOTOMORPHOGENIC 1 (COP1), Arabidopsis; full-length COP1 fused with MBP-tag; The plasmid for full-length MBP-COP1 is not described in the methods; only its expression and purification are; also called CONSTITUTIVELY PHOTOMORPHOGENIC 1; full-length COP1; source: E. coli BL21, purified (amylose resin); not shown: MBP, N-terminal, kept
T1 sequence (looked up): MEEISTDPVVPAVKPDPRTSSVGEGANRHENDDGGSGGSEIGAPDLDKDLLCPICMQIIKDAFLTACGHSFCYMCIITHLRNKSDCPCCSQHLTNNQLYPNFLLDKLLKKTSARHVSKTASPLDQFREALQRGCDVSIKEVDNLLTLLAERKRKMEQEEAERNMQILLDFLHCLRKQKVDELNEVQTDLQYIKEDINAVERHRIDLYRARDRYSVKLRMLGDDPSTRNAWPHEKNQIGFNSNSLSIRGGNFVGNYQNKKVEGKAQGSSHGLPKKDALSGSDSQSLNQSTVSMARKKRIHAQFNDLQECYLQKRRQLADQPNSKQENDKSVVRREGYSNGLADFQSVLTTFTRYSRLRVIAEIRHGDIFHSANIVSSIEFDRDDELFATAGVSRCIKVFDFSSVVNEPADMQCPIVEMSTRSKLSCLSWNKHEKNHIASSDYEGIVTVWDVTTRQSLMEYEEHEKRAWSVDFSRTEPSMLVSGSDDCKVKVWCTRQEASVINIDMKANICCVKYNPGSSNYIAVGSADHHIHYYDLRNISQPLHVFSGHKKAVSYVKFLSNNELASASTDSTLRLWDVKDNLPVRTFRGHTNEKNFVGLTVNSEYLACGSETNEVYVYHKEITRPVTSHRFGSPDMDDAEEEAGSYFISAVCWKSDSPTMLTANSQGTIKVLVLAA
Assay: pull-down; 1 μg GST-GH3.5 and 1 μg MBP-tagged COP1 in 25 mM Tris-HCl pH 7.5, 100 mM NaCl, 0.25% NP40, 4 °C; captured on amylose resin; washed with 500 mM NaCl, 0.5% NP40; blots with anti-MBP and anti-GST
Details: both partners purified

binding result: binds
B1: GST-GH3.5 (enzyme, Arabidopsis, UniProt O81829 1-612, looked up)
chain: MPEAPKKESLEVFDLTLDQKNKQKLQLIEELTSNADQVQRQVLEEILTRNADVEYLRRHDLNGRTDRETFKNIMPVITYEDIEPEINRIANGDKSPILSSKPISEFLTSSGTSGGERKLMPTIEEELDRRSLLYSLLMPVMSQFVPGLENGKGMYFLFIKSESKTPGGLPARPVLTSYYKSSHFKERPYDPYTNYTSPNETILCSDSYQSMYSQMLCGLCQHQEVLRVGAVFASGFIRAIKFLEKHWIELVRDIRTGTLSSLITDPSVREAVAKILKPSPKLADFVEFECKKSSWQGIITRLWPNTKYVDVIVTGTMSQYIPTLDYYSNGLPLVCTMYASSECYFGVNLRPLCKPSEVSYTLIPSMAYFEFLPVHRNNGVTNSINLPKALTEKEQQELVDLVDVKLGQEYELVVTTYAGLCRYRVGDLLRVTGFKNKAPQFSFICRKNVVLSIDSDKTDEVELQNAVKNAVTHLVPFDASLSEYTSYADTSSIPGHYVLFWELCLDGNTPIPPSVFEDCCLAVEESFNTVYRQGRVSDKSIGPLEIKIVEPGTFDKLMDYAISLGASINQYKTPRCVKFAPIIELLNSRVVDSYFSPKCPKWVPGHKQWGSN
notes: the GH3.5 CDS inserted into BamHI/EcoRI of pGEX4T-1; also called GRETCHEN HAGEN 3.5; source: E. coli BL21, purified (Glutathione Sepharose 4B); not shown: GST, N-terminal, kept
